The target in assay [1] is human Fc region manufactured by Jackson ImmunoResearch Laboratories, Inc. (human). The assay can be described thus: SPR, Fc immobilized, 25 C.
The target in assay [2] is Fc region prepared from human monoclonal IgG by papain digestion (human). Nature of the assay: SPR, Fc immobilized.

B1: polypeptide RSS (peptide)
peptide: RSSIAYGGG
For B1, the Kd in assay [1] was found to be 110 µM.

B2: variant polypeptide p17_M51A (peptide)
peptide: GPGISAFSPGRGVYDPETGTWYDAAWHLGELVWATYYDPETGTWEPDWQRALGQ
In assay [2], B2 displayed a Kd of 0.18 µM and a fold decrease of binding activity against p17 of over 100 times.

B3: polypeptide 2A1Gly (peptide)
peptide: GVVRQWSGGGGSGGGGRSSIAYGGG
B3 returned a Kd in assay [1] of 23 µM.

(Values after patent publication US20150353608A1.)
